Target: the molecule itself
Experiment: cross-linking; UV-A irradiation (320-400 nm; 20 and 50 J/cm^2, about 5 °C, 50 mM phosphate buffer, pH 7.5) of the purified protein, then SDS-PAGE after treatment with 150 mM β-mercaptoethanol; 40 kDa species

Protein	stoichiometry N
wild type (WT) αB-crystallin (natural protein, human, UniProt P02511 1-175, looked up, αB-crystallin, human, 175 amino acid residues; cDNA cloned in plasmid pDIRECT; Oligomer; Also used after UV-A exposure (320-400 nm; 20 or 50 J/cm^2), which oxidises Met and/or Trp residues and partly degrades the protein; source: E. coli BL21 (DE3) pLysS, purified (DEAE-Sephacel, Butyl-Sepharose, size-exclusion HPLC)) MDIAIHHPWIRRPFFPFHSPSRLFDQFFGEHLLESDLFPTSTSLSPFYLRPPSFLRAPSWFDTGLSEMRLEKDRFSVNLDVKHFSPEELKVKVLGDVIEVHGKHEERQDEHGFISREFHRKYRIPADVDPLTITSSLSSDGVLTVNGPRKQVSGPERTIPITREEKPAVTAAPKK	2
αB-Asn78Asp deamidated mutant protein (natural protein, human, UniProt P02511 1-175, looked up, αB-crystallin, human, 175 amino acid residues; cDNA cloned in plasmid pDIRECT; Asn78 changed to Asp by site-directed mutagenesis; Mimics deamidation of Asn78; Also used after UV-A exposure; source: E. coli BL21 (DE3) pLysS, purified (DEAE-Sephacel, Butyl-Sepharose, size-exclusion HPLC)) MDIAIHHPWIRRPFFPFHSPSRLFDQFFGEHLLESDLFPTSTSLSPFYLRPPSFLRAPSWFDTGLSEMRLEKDRFSVDLDVKHFSPEELKVKVLGDVIEVHGKHEERQDEHGFISREFHRKYRIPADVDPLTITSSLSSDGVLTVNGPRKQVSGPERTIPITREEKPAVTAAPKK	2
αB-Asn78/146Asp deamidated double mutant protein (natural protein, human, UniProt P02511 1-175, looked up, αB-crystallin, human, 175 amino acid residues; cDNA cloned in plasmid pDIRECT; both Asn78 and Asn146 changed to Asp by site-directed mutagenesis; Mimics deamidation of Asn78 and Asn146; Also used after UV-A exposure; source: E. coli BL21 (DE3) pLysS, purified (DEAE-Sephacel, Butyl-Sepharose, size-exclusion HPLC)) MDIAIHHPWIRRPFFPFHSPSRLFDQFFGEHLLESDLFPTSTSLSPFYLRPPSFLRAPSWFDTGLSEMRLEKDRFSVDLDVKHFSPEELKVKVLGDVIEVHGKHEERQDEHGFISREFHRKYRIPADVDPLTITSSLSSDGVLTVDGPRKQVSGPERTIPITREEKPAVTAAPKK	2
αB-Asn146Asp deamidated mutant protein (natural protein, human, UniProt P02511 1-175, looked up, αB-crystallin, human, 175 amino acid residues; cDNA cloned in plasmid pDIRECT; Asn146 changed to Asp by site-directed mutagenesis; Mimics deamidation of Asn146; Also used after UV-A exposure; source: E. coli BL21 (DE3) pLysS, purified (DEAE-Sephacel, Butyl-Sepharose, size-exclusion HPLC)) MDIAIHHPWIRRPFFPFHSPSRLFDQFFGEHLLESDLFPTSTSLSPFYLRPPSFLRAPSWFDTGLSEMRLEKDRFSVNLDVKHFSPEELKVKVLGDVIEVHGKHEERQDEHGFISREFHRKYRIPADVDPLTITSSLSSDGVLTVDGPRKQVSGPERTIPITREEKPAVTAAPKK	2

— paper PMC2255029, “UV-A-induced structural and functional changes in human lens deamidated αB-crystallin” (Molecular Vision, 2008)
